Several values for one entry are separate records, joined by “and”; a condition that tells them apart may be missing. Equal values may be shown once.

One may read the Kd as the concentration at which binding is half-saturated.

For data set [1], the system named is NbGlk1(1-243) (Nicotiana benthamiana). The data set is described as follows: fluorescence anisotropy. The note with it: 20 mM Tris-HCl pH 7.4, 140 mM NaCl, 1 mM DTT, 10 nM fluorescein-labelled dsDNA, temperature not stated, Kd unit uM inferred from text (Kd >1 uM). Background: Fluorescence polarisation rises when a labelled molecule tumbles more slowly, as on binding a larger partner.

Data set [2] concerns the target T1, NbGlk1(83-402) (Nicotiana benthamiana, UniProt A0A1S4ALG4 83-410).
T1 sequence: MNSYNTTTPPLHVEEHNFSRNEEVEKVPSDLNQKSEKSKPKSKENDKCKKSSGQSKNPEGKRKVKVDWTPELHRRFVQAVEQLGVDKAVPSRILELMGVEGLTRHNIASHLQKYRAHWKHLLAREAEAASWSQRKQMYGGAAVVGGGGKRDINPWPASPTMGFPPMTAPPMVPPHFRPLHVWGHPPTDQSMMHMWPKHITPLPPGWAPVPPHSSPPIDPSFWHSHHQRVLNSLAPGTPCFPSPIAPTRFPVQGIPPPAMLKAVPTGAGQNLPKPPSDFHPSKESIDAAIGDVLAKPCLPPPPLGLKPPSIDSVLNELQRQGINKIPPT
As to the kind of experiment: fluorescence anisotropy. The note with it: 20 mM Tris-HCl pH 7.4, 140 mM NaCl, 1 mM DTT, 10 nM fluorescein-labelled dsDNA, temperature not stated, Kd unit uM inferred from text (Kd >1 uM).

The target of data set [3] is T2, NbGlk1(83-243) (Nicotiana benthamiana, UniProt A0A1S4ALG4 83-252).
T2 sequence: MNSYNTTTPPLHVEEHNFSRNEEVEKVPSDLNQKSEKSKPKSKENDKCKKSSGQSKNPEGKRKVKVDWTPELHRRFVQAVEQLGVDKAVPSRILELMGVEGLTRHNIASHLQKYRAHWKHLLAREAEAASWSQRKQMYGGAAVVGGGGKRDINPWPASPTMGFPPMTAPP
The data set is described as follows: fluorescence anisotropy. The note with it: 20 mM Tris-HCl pH 7.4, 140 mM NaCl, 1 mM DTT, 10 nM fluorescein-labelled dsDNA, temperature not stated, Kd unit uM inferred from text (Kd >1 uM).

Data set [4] concerns the target T3, NbGlk1(83-402) (Nicotiana benthamiana).
T3 chain: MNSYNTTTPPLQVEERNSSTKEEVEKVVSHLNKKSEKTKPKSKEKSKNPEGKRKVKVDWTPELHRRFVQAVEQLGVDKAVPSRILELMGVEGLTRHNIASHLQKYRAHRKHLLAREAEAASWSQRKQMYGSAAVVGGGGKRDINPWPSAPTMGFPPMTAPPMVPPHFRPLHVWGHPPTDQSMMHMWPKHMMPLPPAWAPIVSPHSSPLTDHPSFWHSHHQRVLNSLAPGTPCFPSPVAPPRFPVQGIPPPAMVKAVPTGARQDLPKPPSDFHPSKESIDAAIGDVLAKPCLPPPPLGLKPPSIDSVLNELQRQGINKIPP
The data set is described as follows: fluorescence anisotropy; Fluorescence anisotropy: 20 mM Tris-HCl pH 7.4, 140 mM NaCl, 1 mM DTT, 10 nM labelled DNA; temperature not stated. PBM conditions as in cited protocols. The note with it: protein: recombinant, tags: His6 (pET14b), annealed complementary oligonucleotides.

The target of data set [5] is T4, NbGlk1(83-243) (Nicotiana benthamiana).
T4 chain: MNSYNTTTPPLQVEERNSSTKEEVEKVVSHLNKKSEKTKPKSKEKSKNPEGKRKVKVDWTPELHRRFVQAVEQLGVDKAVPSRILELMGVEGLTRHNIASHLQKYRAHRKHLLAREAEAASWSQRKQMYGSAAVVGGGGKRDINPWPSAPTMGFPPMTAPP
The description is as above. Conditions: protein: recombinant, tags: His6 (pET14b), annealed complementary oligonucleotides.

Data set [6] addresses T1, NbGlk1(83-402). As to the kind of experiment: fluorescence anisotropy; no Rx1 (Table 2 series); 20 mM Tris-HCl pH 7.4, 140 mM NaCl, 1 mM DTT; 10 nM fluorescein-labelled dsDNA; temperature not stated; Kd unit uM inferred from text (Kd >1 uM). Conditions: protein: recombinant; tags: His6 (pET14b); label: 6-carboxyfluorescein end label on FA-1; annealed complementary oligonucleotides.

Data set [7] addresses T1, NbGlk1(83-402). The data set is described as follows: fluorescence anisotropy; no Rx1; 20 mM Tris-HCl pH 7.4, 140 mM NaCl, 1 mM DTT; 10 nM fluorescein-labelled dsDNA; temperature not stated; Kd unit uM inferred from text (Kd >1 uM). Conditions: protein: recombinant; tags: His6 (pET14b); label: 6-carboxyfluorescein end label on FA-1; annealed complementary oligonucleotides.

Data set [8] concerns the target T2, NbGlk1(83-243). The description is as above. Conditions: protein: recombinant; tags: His6 (pET14b); label: 6-carboxyfluorescein end label on FA-1; annealed complementary oligonucleotides.
[9] abbreviates: label: 6-carboxyfluorescein end label on FA-5.
[10] abbreviates: label: 6-carboxyfluorescein end label on FA-3.
[11] abbreviates: label: 6-carboxyfluorescein end label on FA-1.

B1: GATATC (concatenated GGATATCC; FA-5/FA-6) (dsDNA)
DNA 1: CGGATATCCACGGATATCCACGGATATCCACGGATATCCACGGATATCCC
DNA 2: GGGATATCCGTGGATATCCGTGGATATCCGTGGATATCCGTGGATATCCG
With B1, the Kd is greater than 1 µM in data set [1] (+ Rx1(1-144)); greater than 1 µM in data set [1] (+ Rx1(1-489)); greater than 1 µM in data set [1] (no Rx1, text: only a weak affinity); 0.3 µM with NbGlk1(83-402) [2] (+ Rx1(1-144)); 0.19 µM in the data set with NbGlk1(83-402) [2] (+ Rx1(1-489)); 0.34 µM with NbGlk1(83-402) [2] (+ Rx1(GST-1-144)). The Kd is 0.11 µM with NbGlk1(83-402) [2] (no Rx1 (Table 2 series)); 0.08 µM with NbGlk1(83-402) [2] (no Rx1); 0.4 µM with NbGlk1(83-243) [3] (+ Rx1(1-144)); 0.5 µM with NbGlk1(83-243) [3] (+ Rx1(1-489)); 0.18 µM in the data set with NbGlk1(83-243) [3] (no Rx1); 80 nM and 110 nM in the data set with NbGlk1(83-402) [4] (setting [9]). Also, the Kd with NbGlk1(83-243) [5] (setting [9]) is 180 ± 10 nM.

B2: AGATTT (concatenated AGATTTCC; FA-3/FA-4) (dsDNA)
DNA 1: CAGATTTCCACAGATTTCCACAGATTTCCACAGATTTCCACAGATTTCCC
DNA 2: GGGAAATCTGTGGAAATCTGTGGAAATCTGTGGAAATCTGTGGAAATCTG
Turning to B2, the dissociation constant (Kd) in the data set with NbGlk1(83-402) [2] (+ Rx1(1-144)) was determined as 0.46 µM; with NbGlk1(83-402) [2] (+ Rx1(1-489)), 0.34 µM; with NbGlk1(83-402) [2] (+ Rx1(GST-1-144)), 0.73 µM; with NbGlk1(83-402) [2] (no Rx1 (Table 2 series)), 0.22 µM; in the data set with NbGlk1(83-402) [2] (no Rx1), 0.16 µM; with NbGlk1(83-243) [3] (+ Rx1(1-144)), 0.76 µM. Also, the Kd with NbGlk1(83-243) [3] (+ Rx1(1-489)) was 0.65 µM; in the data set with NbGlk1(83-243) [3] (no Rx1), 0.23 µM; with NbGlk1(83-402) [4] (setting [10]), 160 nM and 220 nM; with NbGlk1(83-243) [5] (setting [10]), 230 ± 10 nM.

B3: No site (FA-1/FA-2) (dsDNA)
DNA 1: CACTGTGACACACTGTGACACACTGTGACACACTGTGACACACTGTGACC
DNA 2: GGTCACAGTGTGTCACAGTGTGTCACAGTGTGTCACAGTGTGTCACAGTG
Take B3: the Kd with NbGlk1(83-402) [6] was 320 ± 30 nM; in the data set with NbGlk1(83-402) [4] (setting [11]), 320 nM and 180 nM; in the data set with NbGlk1(83-243) [5] (setting [11]), 330 ± 20 nM; with NbGlk1(83-402) [7] it was 180 ± 10 nM; in the data set with NbGlk1(83-243) [8], 330 ± 20 nM.

These data come from PMC5836133, “The intracellular immune receptor Rx1 regulates the DNA-binding activity of a Golden2-like transcription factor”.
